B5: Smc5 (natural protein)
chain: MTSLIDLGRYVERTHHGEDTEPRSKRVKIAKPDLSSFQPGSIIKIRLQDFVTYTLTEFNLSPSLNMIIGPNGSGKSTFVCAVCLGLAGKPEYIGRSKKVEDFIKNGQDVSKIEITLKNSPNVTDIEYIDARDETIKITRIITRSKRRSDYLINDYQVSESVVKTLVAQLNIQLDNLCQFLSQERVEEFARLKSVKLLVETIRSIDASLLDVLDELRELQGNEQSLQKDLDFKKAKIVHLRQESDKLRKSVESLRDFQNKKGEIELHSQLLPYVKVKDHKEKLNIYKEEYERAKANLRAILKDKKPFANTKKTLENQVEELTEKCSLKTDEFLKAKEKINEIFEKLNTIRDEVIKKKNQNEYYRGRTKKLQATIISTKEDFLRSQEILAQTHLPEKSVFEDIDIKRKEIINKEGEIRDLISEIDAKANAINHEMRSIQRQAESKTKSLTTTDKIGILNQDQDLKEVRDAVLMVREHPEMKDKILEPPIMTVSAINAQFAAYLAQCVDYNTSKALTVVDSDSYKLFANPILDKFKVNLRELSSADTTPPVPAETVRDLGFEGYLSDFITGDKRVMKMLCQTSKIHTIPVSRRELTPAQIKKLITPRPNGKILFKRIIHGNRLVDIKQSAYGSKQVFPTDVSIKQTNFYQGSIMSNEQKIRIENEIINLKNEYNDRKSTLDALSNQKSGYRHELSELASKNDDINREAHQLNEIRKKYTMRKSTIETLREKLDQLKREARKDVSQKIKDIDDQIQQLLLKQRHLLSKMASSMKSLKNCQKELISTQILQFEAQNMDVSMNDVIGFFNEREADLKSQYEDKKKFVKEMRDTPEFQSWMREIRSYDQDTKEKLNKVAEKYEEEGNFNLSFVQDVLDKLESEIAMVNHDESAVTILDQVTAELRELEHTVPQQSKDLETIKAKLKEDHAVLEPKLDDIVSKISARFARLFNNVGSAGAVRLEKPKDYAEWKIEIMVKFRDNAPLKKLDSHTQSGGERAVSTVLYMIALQEFTSAPFRVVDEINQGMDSRNERIVHKAMVENACAENTSQYFLITPKLLTGLHYHEKMRIHCVMAGSWIPNPSEDPKMIHFGETSNYSFD
B6: Nse4 with 8xHis and 3xHA tags (natural protein)
chain: MSSTVISRKRRNSTVTEPDSSGETRKQKKSRSDEKSSSSKDGDPQLEFKVLQGYRDLESEMHKGRAQVTRTGDIGVAMDNLNAVDSLFNKVIGIKNNGLFAHDARAMVSISELAQISVRNLKFDDSRSMVNLENIVNSLKRYMLKEHFKLNNIAENRNDLTLAADEQSAADQQEESDGDIDRTPDDNHTDKATSSFKATSMRHSYLQQFSHYNEFSQFNWFRIGALYNTISKNAPITDHLMGPLSIEKKPRVLTQRRRNNDQVGEKITAEKITQHSLNSTQQETTPEQVKKCFKKLSKKLGPEGSINLFKFIIDPNSFSRSIENLFYTSFLIKEGKLLMEHDEEGLPTIKIKQSISHTDSRSKEIERQRRRAAHQNHIIFQMDMPTWRKLIKKYNITSPFLD

Assay [1] has as its target T1, Smc6 with a triple StrepII tag (S. cerevisiae, UniProt Q12749 1-1114).
T1 sequence: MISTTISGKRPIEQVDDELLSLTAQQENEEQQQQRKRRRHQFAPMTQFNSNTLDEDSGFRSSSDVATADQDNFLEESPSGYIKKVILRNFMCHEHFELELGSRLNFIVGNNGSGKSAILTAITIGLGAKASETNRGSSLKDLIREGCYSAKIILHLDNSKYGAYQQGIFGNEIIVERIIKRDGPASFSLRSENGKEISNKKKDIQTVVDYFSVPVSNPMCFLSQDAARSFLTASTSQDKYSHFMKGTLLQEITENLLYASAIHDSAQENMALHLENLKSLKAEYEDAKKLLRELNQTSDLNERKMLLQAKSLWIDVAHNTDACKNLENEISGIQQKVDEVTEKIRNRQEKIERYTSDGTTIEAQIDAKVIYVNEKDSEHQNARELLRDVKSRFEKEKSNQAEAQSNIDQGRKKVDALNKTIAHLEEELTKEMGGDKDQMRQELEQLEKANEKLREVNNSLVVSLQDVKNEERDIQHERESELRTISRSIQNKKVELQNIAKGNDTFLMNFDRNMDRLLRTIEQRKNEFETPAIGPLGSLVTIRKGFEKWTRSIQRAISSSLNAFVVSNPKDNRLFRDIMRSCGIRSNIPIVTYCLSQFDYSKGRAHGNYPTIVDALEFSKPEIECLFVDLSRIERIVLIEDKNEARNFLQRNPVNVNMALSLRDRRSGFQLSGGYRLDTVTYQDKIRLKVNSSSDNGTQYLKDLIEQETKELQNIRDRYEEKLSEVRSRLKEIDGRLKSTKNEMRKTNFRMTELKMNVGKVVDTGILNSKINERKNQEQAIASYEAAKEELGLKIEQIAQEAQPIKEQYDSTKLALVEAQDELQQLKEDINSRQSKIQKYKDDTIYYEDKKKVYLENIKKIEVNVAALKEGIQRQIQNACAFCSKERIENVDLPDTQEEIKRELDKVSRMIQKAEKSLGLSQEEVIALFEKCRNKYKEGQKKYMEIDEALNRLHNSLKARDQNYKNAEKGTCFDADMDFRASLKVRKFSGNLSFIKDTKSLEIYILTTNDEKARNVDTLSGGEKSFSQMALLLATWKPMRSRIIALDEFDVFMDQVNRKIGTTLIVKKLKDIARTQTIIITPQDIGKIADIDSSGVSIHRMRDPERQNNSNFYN
Put plainly: cross-linking.

The assay “Smc5” addresses B5. Put plainly: cross-linking.
Assay [2] has as its target B6. As to the kind of experiment: cross-linking.
In assay [3] the target is T1, Smc6 with a triple StrepII tag. As to the kind of experiment: affinity purification with mass spectrometry.

B1: Nse3 (natural protein)
chain: MSSIDNDSDVDLTEDLAVAKIVKENPVARKMVRYILSRGESQNSIITRNKLQSVIHEAAREENIAKPSFSKMFMDINAILYNVYGFELQGLPSKNNMNAGGNGSNSNTNKSMPEPLGHRAQKFILLNNVPHSKNFDDFKILQSAHTYEELIVTGEYIGDDIASGTSNTLESKLSTDRDLVYKGVLSVILCIVFFSKNNILHQELIKFLETFGIPSDGSKIAILNITIEDLIKSLEKREYIVRLEEKSDTDGEVISYRIGRRTQAELGLESLEKLVQEIMGLEKEQTKSLHDDIIKSIGDSYSI
Regarding B1, the binding result (in assay [1]; in the assay with Smc5; in assay [2]) was “binds” in each case.

B2: Nse2 (enzyme)
chain: MALNDNPIPKSVPLHPKSGKYFHNLHARDLSNIYQQCYKQIDETINQLVDSTSPSTIGIEEQVADITSTYKLLSTYESESNSFDEHIKDLKKNFKQSSDACPQIDLSTWDKYRTGELTAPKLSELYLNMPTPEPATMVNNTDTLKILKVLPYIWNDPTCVIPDLQNPADEDDLQIEGGKIELTCPITCKPYEAPLISRKCNHVFDRDGIQNYLQGYTTRDCPQAACSQVVSMRDFVRDPIMELRCKIAKMKESQEQDKRSSQAIDVL
On to B2, for which the binding result (in assay [1]; with Smc5) was “binds” each time.

B3: Nse1 (natural protein)
chain: MEVHEEQVSAPVTGDATAKYLLQYILSARGICHENALILALMRLETDASTLNTEWSIQQWVDKLNDYINAINVKLNLLGYKIIRINHGIGRNAVTLKAKQNFESFEDNTAIRAHNNDYAVLQSIVLPESNRFFVYVNLASTEETKLATRFNQNEIEFMKWAIEQFMISGETIVEGPALETSIIVKEVNRILVAATGDSNLAKWRKFSTFTVGSTNLFQFQELTATDIEDLLLRLCELKWFYRTQEGKFGIDLRCIAELEEYLTSMYNLNTCQNCHKLAIQGVRCGNESCREENEETGENSLSQIWHVDCFKHYITHVSKNCDRCGSSLITEGVYVI
Regarding B3, the binding result (in assay [1]; in the assay with Smc5) was “binds” each time.

B4: Nse5 (natural protein)
chain: MDGALINSVLYVSPRNGAHYFVELTEKHLLAFEMLNSMCLLENYDHVLLFLECQFGKSHNLAVIPFDIILVLFTLSTLSEYYKEPILRANDPYNTSRETLSRRALKLLQKYLAILKEFDSEQYNLYDLELLRCQFFLAIDTLTPKKQKWGFDRFRRTKSESGVTYRQNASVDPELDQAKTFKNPYRSYISCLEQRNTILGNRLLNLKLNEPGEFINMILWTLSNSLQESTPLFLSSHEIWMPLLEILIDLFSCRQDYFIQHEVAQNVSKSLFVQRLSESPLAVFFESLNTRNFANRFSEYVFLNCDYKLPSDNYATPVHPVYNGENTIVDTYIPTIKCSPLYKSQKSLALRRKLIGSCFKLLLRVPDGHRLITPRIVADDVIQGISRTLASFNDILQFKKFFMTENLSQESYFIPLLAEGTLSEILKDTQECVVILTLVENLSDGVSFCNEVIGLVKSKCFAFTEQCSQASYEEAVLNIEKCDVCLLVLLRYLLHLIGTEAILDAKEQLEMLHAIEKNDSGRRQWAKALNLGNDPPLLYPIVSQMFGVHDKSVIIE
Turning to B4, the binding result (in assay [1]; in the assay with Smc5) was “binds” in each case.
B5: in assay [3], the binding result is recorded as “binds”.
As for B6, the binding result (in assay [1]; with Smc5) was “binds” in each case.

The values above are taken from publication PMC7758880 (Molecular Cell, 2020).
